Assay [1] has as its target T1, murine core RAG1 fused to maltose-binding protein, wild type (murine), P15919.
T1 chain: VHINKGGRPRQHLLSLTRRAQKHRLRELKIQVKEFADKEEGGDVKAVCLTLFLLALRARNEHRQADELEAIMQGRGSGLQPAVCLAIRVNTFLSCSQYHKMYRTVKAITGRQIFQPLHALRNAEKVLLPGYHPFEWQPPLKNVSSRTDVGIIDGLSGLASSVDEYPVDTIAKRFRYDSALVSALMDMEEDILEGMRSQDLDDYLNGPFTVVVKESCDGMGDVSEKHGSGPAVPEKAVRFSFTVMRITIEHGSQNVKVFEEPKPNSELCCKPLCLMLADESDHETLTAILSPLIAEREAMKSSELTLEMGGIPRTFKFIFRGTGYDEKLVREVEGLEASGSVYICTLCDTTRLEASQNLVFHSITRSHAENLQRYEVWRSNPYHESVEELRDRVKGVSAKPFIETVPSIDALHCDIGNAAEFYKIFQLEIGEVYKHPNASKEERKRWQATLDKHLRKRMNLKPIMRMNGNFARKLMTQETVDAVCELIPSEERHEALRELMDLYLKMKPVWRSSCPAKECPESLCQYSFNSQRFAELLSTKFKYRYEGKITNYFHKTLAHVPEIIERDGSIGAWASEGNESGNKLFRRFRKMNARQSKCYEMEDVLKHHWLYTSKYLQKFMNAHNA
The experiment in a line: SEC. Particulars: remark: other sources report otherwise.

The target of a further assay is T2, mR1(core) H942A mutant (murine, UniProt P15919 384-1008, H942A).
T2 sequence (looked up): T1 chain with H559A
The experiment in a line: pull-down.

A further assay addresses T3, mR1(core) E962A mutant (murine, UniProt P15919 384-1008, E962A).
T3 sequence (looked up): T1 chain with E579A
In words: pull-down.

The target of a further assay is T4, mR1(core) H937A mutant (murine, UniProt P15919 384-1008, H937A).
T4 sequence (looked up): T1 chain with H554A
In words: pull-down.

The target of assay [2] is T5, murine core RAG1 fused to maltose-binding protein, wild type (murine, UniProt P15919 384-1008).
T5 sequence (looked up): T1 chain
In words: pull-down.

Changes are numbered by the printed parent chain.

The values below come from paper PMC2782368 (Journal of molecular biology, 2009).

What is called stoichiometry N is the number of molecules, sites or subunits per partner or assembly.

B1: murine core RAG1 fused to maltose-binding protein, wild type, P15919 384-1008 (domain or fragment)
chain: T1 chain
The molecule B1 came in with a stoichiometry N in assay [1] of 2.

B2: core RAG2 fused to glutathione S-transferase (domain or fragment, murine, UniProt P21784 1-387, looked up)
chain: MSLQMVTVGHNIALIQPGFSLMNFDGQVFFFGQKGWPKRSCPTGVFHFDIKQNHLKLKPAIFSKDSCYLPPLRYPATCSYKGSIDSDKHQYIIHGGKTPNNELSDKIYIMSVACKNNKKVTFRCTEKDLVGDVPEPRYGHSIDVVYSRGKSMGVLFGGRSYMPSTQRTTEKWNSVADCLPHVFLIDFEFGCATSYILPELQDGLSFHVSIARNDTVYILGGHSLASNIRPANLYRIRVDLPLGTPAVNCTVLPGGISVSSAILTQTNNDEFVIVGGYQLENQKRMVCSLVSLGDNTIEISEMETPDWTSDIKHSKIWFGSNMGNGTIFLGIPGDNKQAMSEAFYFYTLRCSEEDLSEDQKIVSNSQTSTEDPGDSTPFEDSEEFCFS
For B2, the binding result (with mR1(core) H942A mutant; with mR1(core) E962A mutant; in the assay with mR1(core) H937A mutant; in assay [2]) was “binds” throughout.
